# From patent US20210147507A1, “METHODS TO AUGMENT OR ALTER SIGNAL TRANSDUCTION” (Bellicum Pharmaceuticals, Inc., priority 2017, published 2021)
# Test system: chimeric Caspase-9 polypeptide
# Assay: Caspase-9 mutant classes and basal activity (Table 5)
# Format: cell-based
# Settings: Caspase-9 mutant class; for IC50: ligand IC50 compared with unmodified chimeric Caspase-9
# Description: Even though homo-dimerization of wild-type initiator Caspase-9 is energetically unfavorable, making them mostly monomers in solution [14-16], the low-level inherent basal activity of unprocessed Caspase-9 [15, 17] is enhanced in the presence of the Apaf-1-based “apoptosome”, its natural allosteric regulator [6]. Moreover, supra-physiological expression levels and/or co-localization could lead to proximity-driven dimerization, further enhancing basal activation. The modified cells of the present application may comprise nucleic acids coding for a chimeric Caspase-9 polypeptide having lower basal signaling activity. Polynucleotides comprising Caspase-9 mutants with lower basal signaling may be expressed in the modified cells used for cell therapy herein. In these examples, the modified cells may include a safety switch, comprising a polynucleotide encoding a lower basal signaling chimeric Caspase-9 polypeptide. In the event of an adverse event following administration of the modified cells comprising the chimeric signaling polypeptides or chimeric antigen receptors herein, Caspase-9 activity may be induced by administering the dimerizer to the patient, thus inducing apoptosis and clearance of some, or all of the modified cells. In some examples, the amount of dimerizer administered may be determined as an amount designed to remove the highest amount, at least 80% or 90% of the modified cells. In other examples, the amount of dimerizer administered may be determined as an amount designed to remove only a portion of the modified cells, in order to alleviate negative symptoms or conditions, while leaving a sufficient amount of therapeutic modified cells in the patient, in order to continue therapy. Methods for using chimeric Caspase-9 polypeptides to induce apoptosis are discussed in PCT Application Number PCT/US2011/037381 by Malcolm K. Brenner et al., titled Methods for Inducing Selective Apoptosis, filed May 20, 2011, and in U.S. patent application Ser. No. 13/112,739 by Malcolm K. Brenner et al., titled Methods for Inducing Selective Apoptosis, filed May 20, 2011, issued Jul. 28, 2015 as U.S. Pat. No. 9,089,520. Chimeric caspase polypeptides having modified basal activity are discussed in PCT Application Serial Number PCT/US2014/022004 by David Spencer et al., titled Modified Caspase Polypeptides and Uses Thereof, filed Mar. 7, 2014, published Oct. 9, 2014 as WO2014/164348, and in U.S. patent application Ser. No. 13/792,135 by David Spencer et al., titled Modified Caspase Polypeptides and Uses Thereof, filed Mar. 7, 2014; and in U.S. patent application Ser. No. 14/640,553 by Spencer et al., filed Mar. 6, 2015. Methods for inducing partial apoptosis of the therapeutic modified cells are discussed in PCT Application Number PCT/US14/040964 by Kevin Slawin et al., titled Methods for Inducing Partial Apoptosis Using Caspase Polypeptides, filed Jun. 4, 2014, published Dec. 11, 2014 as WO2014/197638, and in U.S. patent application Ser. No. 14/296,404 by Kevin Slawin et al., titled Methods for Inducing Partial Apoptosis Using Caspase Polypeptides, filed Jun. 4, 2014. These patent applications and publications are all incorporated by reference herein in their entireties.
# [1] = basal (ligand-independent) signaling compared with unmodified chimeric Caspase-9
# Sequence of chimeric Caspase-9 polypeptide (P62942 2-108 F37V limits assumed): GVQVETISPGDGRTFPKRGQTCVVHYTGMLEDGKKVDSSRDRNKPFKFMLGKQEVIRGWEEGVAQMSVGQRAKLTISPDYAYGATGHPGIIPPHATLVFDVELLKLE
Molecule,Basal Activity (mutants marked * = predicted),Basal Activity [1],IC50
"N405Q-S144Aco (protein, UniProt P55211 1-416, looked up, variant N405Q S144A, codon-optimized; in iC9 construct) MDEADRRLLRRCRLRLVEELQVDQLWDALLSRELFRPHMIEDIQRAGSGSRRDQARQLIIDLETRGSQALPLFISCLEDTGQDMLASFLRTNRQAAKLSKPTLENLTPVVLRPEIRKPEVLRPETPRPVDIGSGGFGDVGALEALRGNADLAYILSMEPCGHCLIINNVNFCRESGLRTRTGSNIDCEKLRRRFSSLHFMVEVKGDLTAKKMVLALLELAQQDHGALDCCVVVILSHGCQASHLQFPGAVYGTDGCPVSVEKIVNIFNGTSCPSLGGKPKLFFIQACGGEQKDHGFEVASTSPEDESPGSNPEPDATPFQEGLRTFDQLDAISSLPTPSDIFVSYSTFPGFVSWRDPKSGSWYVETLDDIFEQWAHSEDLQSLLLRVANAVSVKGIYKQMPGCFQFLRKKLFFKTS",Decreased,–,–
"N405Q-T317Sco (protein, UniProt P55211 1-416, looked up, variant N405Q T317S, codon-optimized; in iC9 construct) MDEADRRLLRRCRLRLVEELQVDQLWDALLSRELFRPHMIEDIQRAGSGSRRDQARQLIIDLETRGSQALPLFISCLEDTGQDMLASFLRTNRQAAKLSKPTLENLTPVVLRPEIRKPEVLRPETPRPVDIGSGGFGDVGALESLRGNADLAYILSMEPCGHCLIINNVNFCRESGLRTRTGSNIDCEKLRRRFSSLHFMVEVKGDLTAKKMVLALLELAQQDHGALDCCVVVILSHGCQASHLQFPGAVYGTDGCPVSVEKIVNIFNGTSCPSLGGKPKLFFIQACGGEQKDHGFEVASTSPEDESPGSNPEPDASPFQEGLRTFDQLDAISSLPTPSDIFVSYSTFPGFVSWRDPKSGSWYVETLDDIFEQWAHSEDLQSLLLRVANAVSVKGIYKQMPGCFQFLRKKLFFKTS",Decreased,–,–
D330A-S144D (protein) GFGDVGALEDLRGNADLAYILSMEPCGHCLIINNVNFCRESGLRTRTGSNIDCEKLRRRFSSLHFMVEVKGDLTAKKMVLALLELARQDHGALDCCVVVILSHGCQASHLQFPGAVYGTDGCPVSVEKIVNIFNGTSCPSLGGKPKLFFIQACGGEQKDHGFEVASTSPEDESPGSNPEPDATPFQEGLRTFDQLAAISSLPTPSDIFVSYSTFPGFVSWRDPKSGSWYVETLDDIFEQWAHSEDLQSLLLRVANAVSVKGIYKQMPGCFNFLRKKLFFKTSASRA,–,Decreased,higher IC50
F404Y (protein) GFGDVGALESLRGNADLAYILSMEPCGHCLIINNVNFCRESGLRTRTGSNIDCEKLRRRFSSLHFMVEVKGDLTAKKMVLALLELARQDHGALDCCVVVILSHGCQASHLQFPGAVYGTDGCPVSVEKIVNIFNGTSCPSLGGKPKLFFIQACGGEQKDHGFEVASTSPEDESPGSNPEPDATPFQEGLRTFDQLDAISSLPTPSDIFVSYSTFPGFVSWRDPKSGSWYVETLDDIFEQWAHSEDLQSLLLRVANAVSVKGIYKQMPGCYNFLRKKLFFKTSASRA,–,Decreased,higher IC50
N405Q-T317S (protein) GFGDVGALESLRGNADLAYILSMEPCGHCLIINNVNFCRESGLRTRTGSNIDCEKLRRRFSSLHFMVEVKGDLTAKKMVLALLELARQDHGALDCCVVVILSHGCQASHLQFPGAVYGTDGCPVSVEKIVNIFNGTSCPSLGGKPKLFFIQACGGEQKDHGFEVASTSPEDESPGSNPEPDASPFQEGLRTFDQLDAISSLPTPSDIFVSYSTFPGFVSWRDPKSGSWYVETLDDIFEQWAHSEDLQSLLLRVANAVSVKGIYKQMPGCFQFLRKKLFFKTSASRA,–,Decreased,higher IC50
D330A-S196A (protein) GFGDVGALESLRGNADLAYILSMEPCGHCLIINNVNFCRESGLRTRTGSNIDCEKLRRRFSALHFMVEVKGDLTAKKMVLALLELARQDHGALDCCVVVILSHGCQASHLQFPGAVYGTDGCPVSVEKIVNIFNGTSCPSLGGKPKLFFIQACGGEQKDHGFEVASTSPEDESPGSNPEPDATPFQEGLRTFDQLAAISSLPTPSDIFVSYSTFPGFVSWRDPKSGSWYVETLDDIFEQWAHSEDLQSLLLRVANAVSVKGIYKQMPGCFNFLRKKLFFKTSASRA,–,Decreased,higher IC50
N405Q-S144D (protein) GFGDVGALEDLRGNADLAYILSMEPCGHCLIINNVNFCRESGLRTRTGSNIDCEKLRRRFSSLHFMVEVKGDLTAKKMVLALLELARQDHGALDCCVVVILSHGCQASHLQFPGAVYGTDGCPVSVEKIVNIFNGTSCPSLGGKPKLFFIQACGGEQKDHGFEVASTSPEDESPGSNPEPDATPFQEGLRTFDQLDAISSLPTPSDIFVSYSTFPGFVSWRDPKSGSWYVETLDDIFEQWAHSEDLQSLLLRVANAVSVKGIYKQMPGCFQFLRKKLFFKTSASRA,–,Decreased,higher IC50
F406A (protein) GFGDVGALESLRGNADLAYILSMEPCGHCLIINNVNFCRESGLRTRTGSNIDCEKLRRRFSSLHFMVEVKGDLTAKKMVLALLELARQDHGALDCCVVVILSHGCQASHLQFPGAVYGTDGCPVSVEKIVNIFNGTSCPSLGGKPKLFFIQACGGEQKDHGFEVASTSPEDESPGSNPEPDATPFQEGLRTFDQLDAISSLPTPSDIFVSYSTFPGFVSWRDPKSGSWYVETLDDIFEQWAHSEDLQSLLLRVANAVSVKGIYKQMPGCFNALRKKLFFKTSASRA,–,Decreased,higher IC50
D330A-S183A (protein) GFGDVGALESLRGNADLAYILSMEPCGHCLIINNVNFCRESGLRTRTGANIDCEKLRRRFSSLHFMVEVKGDLTAKKMVLALLELARQDHGALDCCVVVILSHGCQASHLQFPGAVYGTDGCPVSVEKIVNIFNGTSCPSLGGKPKLFFIQACGGEQKDHGFEVASTSPEDESPGSNPEPDATPFQEGLRTFDQLAAISSLPTPSDIFVSYSTFPGFVSWRDPKSGSWYVETLDDIFEQWAHSEDLQSLLLRVANAVSVKGIYKQMPGCFNFLRKKLFFKTSASRA,–,Decreased,higher IC50
N405Q-S196D (protein) GFGDVGALESLRGNADLAYILSMEPCGHCLIINNVNFCRESGLRTRTGSNIDCEKLRRRFSDLHFMVEVKGDLTAKKMVLALLELARQDHGALDCCVVVILSHGCQASHLQFPGAVYGTDGCPVSVEKIVNIFNGTSCPSLGGKPKLFFIQACGGEQKDHGFEVASTSPEDESPGSNPEPDATPFQEGLRTFDQLDAISSLPTPSDIFVSYSTFPGFVSWRDPKSGSWYVETLDDIFEQWAHSEDLQSLLLRVANAVSVKGIYKQMPGCFQFLRKKLFFKTSASRA,–,Decreased,higher IC50
N405Q-S144A (protein) GFGDVGALEALRGNADLAYILSMEPCGHCLIINNVNFCRESGLRTRTGSNIDCEKLRRRFSSLHFMVEVKGDLTAKKMVLALLELARQDHGALDCCVVVILSHGCQASHLQFPGAVYGTDGCPVSVEKIVNIFNGTSCPSLGGKPKLFFIQACGGEQKDHGFEVASTSPEDESPGSNPEPDATPFQEGLRTFDQLDAISSLPTPSDIFVSYSTFPGFVSWRDPKSGSWYVETLDDIFEQWAHSEDLQSLLLRVANAVSVKGIYKQMPGCFQFLRKKLFFKTSASRA,–,Decreased,higher IC50
F406W (protein) GFGDVGALESLRGNADLAYILSMEPCGHCLIINNVNFCRESGLRTRTGSNIDCEKLRRRFSSLHFMVEVKGDLTAKKMVLALLELARQDHGALDCCVVVILSHGCQASHLQFPGAVYGTDGCPVSVEKIVNIFNGTSCPSLGGKPKLFFIQACGGEQKDHGFEVASTSPEDESPGSNPEPDATPFQEGLRTFDQLDAISSLPTPSDIFVSYSTFPGFVSWRDPKSGSWYVETLDDIFEQWAHSEDLQSLLLRVANAVSVKGIYKQMPGCFNWLRKKLFFKTSASRA,–,Decreased,higher IC50
